Source: patent US20140120555A1 (PIERRE FABRE MEDICAMENT, published 2014)
Residue numbers refer to the chain shown, from its start. Names and notes keep the numbering of the source.

How the values were obtained:
[1] = target: T1, Recombinant human FcγRIIIA variant V [CD16a], Gln17-Gln208 with C-terminal 6-His tag (human, UniProt P08637 17-208); assay: SPR (Biacore X), steady-state analysis, response at end of association versus h-FcγRIIIA concentration
T1 construct: range 17-208; 'variant V' is given without a position, so no substitution is written; also called h-FcγRIIIA

[2] = target: T2, Recombinant human FcγRI [CD64], Gln16-Pro288 with C-terminal 6-His tag (human, UniProt P12314 16-288); assay: SPR (Biacore X): h-FcγRI injected over c515H7 Mab immobilized on a CM4 sensorchip; Langmuir model
T2 construct: range 16-288; Soluble form bought from R&D Systems; also called h-FcγRI
Description: (§1) 2017 RU of c515H7 Mab were immobilized using the amine coupling kit chemistry on the second flowcell (FC2) of a CM4 sensorchip. The first flowcell (FC1) activated by NHS and EDC mixture and des-activated by ethanolamine served as the reference surface to check and subtract the non specific interaction between the analyte (Fc gamma receptors) and the sensorchip matrix.
(§2) The kinetic experiments were carried out at 25° Celsius at a flow rate of 30 μl/min. The HBS-EP buffer was used either as the running buffer or for the preparation of analyte solutions. The analyte solutions were injected during 90 seconds (association phase) with a 90 seconds delay (dissociation phase). An injection of running buffer as analyte was used as a double reference. All the sensorgrams were corrected by this double reference sensorgram.
(§3) After each injection of the analyte, the sensorchip was regenerated by injection of 20 mM NaOH, 75 mM NaCl solution.

[3] = target: T2, Recombinant human FcγRI [CD64], …; assay: SPR (Biacore X), Mab amine-coupled on CM4 chip, h-FcγRI as analyte, Langmuïr model
[4] = target: T3, Recombinant mouse FcγRI [CD64], Gln25-Pro297 with C-terminal 6-His tag (mouse, UniProt P26151 25-297); assay: SPR (Biacore X), Mab on CM4 chip, m-FcγRI as analyte, heterogeneous ligand model, minor component; minor component (19%), lower end
T3 construct: range 25-297; Soluble form bought from R&D Systems; also called m-FcγRI
T3 sequence: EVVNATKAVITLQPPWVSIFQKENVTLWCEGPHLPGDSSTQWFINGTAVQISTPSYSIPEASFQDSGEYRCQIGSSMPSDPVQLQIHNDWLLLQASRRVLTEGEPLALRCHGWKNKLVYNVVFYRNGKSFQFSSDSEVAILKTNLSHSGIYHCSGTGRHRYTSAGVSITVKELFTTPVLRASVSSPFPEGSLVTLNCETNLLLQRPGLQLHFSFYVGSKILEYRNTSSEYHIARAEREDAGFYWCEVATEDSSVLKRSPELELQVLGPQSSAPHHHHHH
Description: as §1, §2
According to this model, the c515H7 Mab Fc domain may be regarded as a mixture of two components.

[5] = target: T3, Recombinant mouse FcγRI [CD64], …; assay: SPR (Biacore X), steady-state analysis, response at end of association versus m-FcγRI concentration
[6] = target: T1, Recombinant human FcγRIIIA variant V …; assay: SPR (Biacore X): h-FcγRIIIA injected over c515H7 Mab immobilized on a CM4 sensorchip; heterogeneous ligand model, major component (81%)
Description: as §1, §2, §3

[7] = target: T1, Recombinant human FcγRIIIA variant V …; assay: SPR (Biacore X), Mab on CM4 chip, h-FcγRIIIA as analyte, heterogeneous ligand model, minor component
[8] = target: T1, Recombinant human FcγRIIIA variant V …; assay: SPR (Biacore X), Mab on CM4 chip, h-FcγRIIIA as analyte, heterogeneous ligand model, major component
[9] = target: T4, Recombinant mouse FcγRIII [CD16], Ala31-Thr215 with C-terminal 10-His tag (mouse, UniProt P08508 31-215); assay: SPR (Biacore X): m-FcγRIII injected over hz515H7VH1D76NVL2 Mab immobilized on a CM4 sensorchip; Langmuir model
T4 construct: Soluble form bought from R&D Systems; also called m-FcγRIII
T4 sequence: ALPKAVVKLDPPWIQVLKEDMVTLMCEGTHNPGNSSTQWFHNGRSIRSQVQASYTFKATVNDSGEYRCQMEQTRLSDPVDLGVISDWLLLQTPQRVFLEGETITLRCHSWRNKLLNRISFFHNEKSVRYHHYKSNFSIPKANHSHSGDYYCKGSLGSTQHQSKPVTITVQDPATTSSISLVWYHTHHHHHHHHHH
Description: as §1, with “1964” for “2017”, “hz515H7VH1D76NVL2” for “c515H7”
as §2
Using the Langmuïr model the constant of dissociation was around 17 and 18 nM.

[10] = target: T3, Recombinant mouse FcγRI [CD64], …; assay: SPR (Biacore X): m-FcγRI injected over hz515H7VH1D76NVL2 Mab immobilized on a CM4 sensorchip; heterogeneous ligand model, major component (82%)
Description: as §1, with “1964” for “2017”, “hz515H7VH1D76NVL2” for “c515H7”
as §2
After each injection of the analyte, the sensorchip was regenerated by injection of either 20 mM NaOH solution after h-FcγRI and m-FcγRIII or 10 mM NaOH after h-FcγRIIIA and m-FcγRI.

T1 sequence (P08637 other isoform, or with tags, fused parts or gaps mutant limits assumed, form in doubt): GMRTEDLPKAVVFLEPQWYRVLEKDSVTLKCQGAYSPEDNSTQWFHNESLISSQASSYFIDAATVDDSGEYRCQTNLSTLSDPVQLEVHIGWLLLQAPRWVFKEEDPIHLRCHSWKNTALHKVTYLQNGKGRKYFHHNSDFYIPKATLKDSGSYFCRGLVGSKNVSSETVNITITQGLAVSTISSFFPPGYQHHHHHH
T2 sequence (P12314 other isoform, or with tags, fused parts or gaps limits assumed): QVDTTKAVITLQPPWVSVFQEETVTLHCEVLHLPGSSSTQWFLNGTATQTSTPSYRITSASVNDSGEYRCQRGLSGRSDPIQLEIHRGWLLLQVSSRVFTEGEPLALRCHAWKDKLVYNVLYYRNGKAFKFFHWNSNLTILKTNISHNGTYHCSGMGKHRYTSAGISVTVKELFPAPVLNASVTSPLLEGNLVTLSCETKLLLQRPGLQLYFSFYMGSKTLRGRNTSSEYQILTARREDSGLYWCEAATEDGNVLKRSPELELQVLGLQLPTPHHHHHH

B1: chimeric antibody c515H7 (antibody, human IgG1, kappa)
heavy: not shown
light: DIVMSQSPSSLAVSAGEKVTMSCKSSQSLFNSRTRKNYLAWYQQKPGQSPKLLIYWASARDSGVPARFTGSGSETYFTLTISRVQAEDLAVYYCMQSFNLRTFGGGTKLEIKRTVAAPSVFIFPPSDEQLKSGTASVVCLLNNFYPREAKVQWKVDNALQSGNSQESVTEQDSKDSTYSLSSTLTLSKADYEKHKVYACEVTHQGLSSPVTKSFNRGEC
notes: Human IgG1/kappa constant domains; also called c515H7 Mab; chimeric 515H7
Kd [1]: 160 nM
Kd [2]: 1.22 nM
koff [2]: 0.000599 s⁻¹
kon [2]: 493000 M⁻¹ s⁻¹
Kd [3]: 1.2 nM
Kd [4]: 32 to 37 nM
Kd [5]: 107 nM
Kd [6]: 395 nM
koff [6]: 0.185 s⁻¹
kon [6]: 468000 M⁻¹ s⁻¹
Kd [7]: 32 to 37 nM
Kd [8]: 380 to 450 nM

B2: humanized antibody Hz515H7 VH1 D76N VL2 (antibody, human IgG1, kappa)
heavy: not shown
light: B1 light with S5T, A15L, K18R, V19A, G105Q, L109V
notes: IgG1/kappa; also called hz515H7VL2; hz515H7-1
Kd [1]: 176 nM
Kd [9]: 17.4 nM
koff [9]: 0.00364 s⁻¹
kon [9]: 209000 M⁻¹ s⁻¹
Kd [10]: 76.8 nM
koff [10]: 0.106 s⁻¹
kon [10]: 1.38e+06 M⁻¹ s⁻¹
Kd [3]: 0.9 nM
Kd [5]: 95 nM
Kd [7]: 27 to 32 nM
Kd [8]: 300 to 350 nM
